The text below walks through data of the supplement of paper PMC10567573.

To fix the notation:
B1: USP39 (parent)
chain: TLSEAYIQIWKRRDNDETNQQGA
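Also: lentivirally expressed fusions sorted by FACS into six bins by GFP to DsRed ratio, PSI derived from sequencing read proportions per bin multiplied by bin number.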

Variants of B1 are the subject of the series. Put plainly: protein stability index of a GFP-peptide fusion (GPS, HEK-293T) (PSI 1-6); higher = more stable. The conditions noted are these: c terminus: native.
TLSEAYIQIWARRDNDETNQQGA: the protein stability index was determined as 1.74.

TLSEAYLQIWKRRDNDETNQQGA: the protein stability index is 2.44.

Take TLSEAYQQIWKRRDNDETNQQGA: the protein stability index stood at 3.2.

Take TLSEAYTQIWKRRDNDETNQQGA: the protein stability index was 2.53.

Turning to TLSEAYRQIWKRRDNDETNQQGA, the protein stability index is 2.68.

TLSEAYDQIWKRRDNDETNQQGA: the protein stability index worked out at 3.29.

Turning to TLSEAYHQIWKRRDNDETNQQGA, the protein stability index was found to be 3.07.

In the case of TLSEAYCQIWKRRDNDETNQQGA, the protein stability index worked out at 2.41.

TLSEAYEQIWKRRDNDETNQQGA: the protein stability index is 3.69.

As for TLSEAYAQIWKRRDNDETNQQGA, the protein stability index is 2.93.

With TLSEAYYQIWKRRDNDETNQQGA, the protein stability index was determined as 2.18.

With TLSEAYNQIWKRRDNDETNQQGA, the protein stability index worked out at 2.82.

TLSEAYPQIWKRRDNDETNQQGA: the protein stability index was found to be 3.23.

As for TLSEAYVQIWKRRDNDETNQQGA, the protein stability index turned out to be 2.72.

For the variant TLSEAYFQIWKRRDNDETNQQGA, the protein stability index stood at 2.27.

Take TLSEAYSQIWKRRDNDETNQQGA: the protein stability index was 3.32.

For the variant TLSEAYGQIWKRRDNDETNQQGA, the protein stability index came out at 2.56.

Regarding TLSEAYWQIWKRRDNDETNQQGA, the protein stability index is 3.49.

With TLSEAYKQIWKRRDNDETNQQGA, the protein stability index was determined as 3.71.

Consider TLSEAYIQHWKRRDNDETNQQGA, for which the protein stability index was found to be 2.68.

Consider TLSEAYIQRWKRRDNDETNQQGA, for which the protein stability index was found to be 3.3.

Turning to TLSEAYIQEWKRRDNDETNQQGA, the protein stability index was 3.11.

For the variant TLSEAYIQFWKRRDNDETNQQGA, the protein stability index turned out to be 2.03.

Regarding TLSEAYIQNWKRRDNDETNQQGA, the protein stability index was 3.46.

Take TLSEAYIQPWKRRDNDETNQQGA: the protein stability index was found to be 3.42.

As for TLSEAYIQSWKRRDNDETNQQGA, the protein stability index worked out at 2.8.

In the case of TLSEAYIQMWKRRDNDETNQQGA, the protein stability index was 2.5.

Regarding TLSEAYIQVWKRRDNDETNQQGA, the protein stability index was determined as 2.67.

Consider TLSEAYIQKWKRRDNDETNQQGA, for which the protein stability index came out at 3.13.

Take TLSEAYIQYWKRRDNDETNQQGA: the protein stability index stood at 3.19.

Regarding TLSEAYIQQWKRRDNDETNQQGA, the protein stability index came out at 3.23.

TLSEAYIQWWKRRDNDETNQQGA: the protein stability index is 1.73.

For the variant TLSEAYIQAWKRRDNDETNQQGA, the protein stability index came out at 2.66.

For the variant TLSEAYIQCWKRRDNDETNQQGA, the protein stability index amounted to 2.12.

In the case of TLSEAYIQTWKRRDNDETNQQGA, the protein stability index turned out to be 2.7.

As for TLSEAYIQGWKRRDNDETNQQGA, the protein stability index amounted to 2.54.

With TLSEAYIQLWKRRDNDETNQQGA, the protein stability index worked out at 2.21.

On to TLSEAYIQDWKRRDNDETNQQGA, for which the protein stability index stood at 2.84.

For the variant TLSEADIQIWKRRDNDETNQQGA, the protein stability index was 3.66.

Consider TLSEAMIQIWKRRDNDETNQQGA, for which the protein stability index stood at 2.26.

For TLSEAEIQIWKRRDNDETNQQGA, the protein stability index is 2.32.

Regarding TLSEAHIQIWKRRDNDETNQQGA, the protein stability index is 3.07.

In the case of TLSEATIQIWKRRDNDETNQQGA, the protein stability index was found to be 3.32.

With TLSEAAIQIWKRRDNDETNQQGA, the protein stability index is 3.45.

As to TLSEAQIQIWKRRDNDETNQQGA, the protein stability index came out at 3.57.

On to TLSEAKIQIWKRRDNDETNQQGA, for which the protein stability index came out at 3.02.

For TLSEALIQIWKRRDNDETNQQGA, the protein stability index turned out to be 2.2.

For the variant TLSEARIQIWKRRDNDETNQQGA, the protein stability index was determined as 3.02.

For TLSEANIQIWKRRDNDETNQQGA, the protein stability index stood at 1.9.

TLSEAPIQIWKRRDNDETNQQGA: the protein stability index stood at 2.61.

On to TLSEASIQIWKRRDNDETNQQGA, for which the protein stability index was 2.89.

As to TLSEAVIQIWKRRDNDETNQQGA, the protein stability index was found to be 3.28.

For the variant TLSEAFIQIWKRRDNDETNQQGA, the protein stability index came out at 2.9.

Regarding TLSEAIIQIWKRRDNDETNQQGA, the protein stability index stood at 2.88.

Take TLSEACIQIWKRRDNDETNQQGA: the protein stability index turned out to be 2.98.

Regarding TLSEAGIQIWKRRDNDETNQQGA, the protein stability index was determined as 3.19.

Regarding TLSEAYIQIRKRRDNDETNQQGA, the protein stability index worked out at 3.49.

In the case of TLSEAYIQIEKRRDNDETNQQGA, the protein stability index amounted to 3.69.

Turning to TLSEAYIQILKRRDNDETNQQGA, the protein stability index was determined as 2.96.

Regarding TLSEAYIQIYKRRDNDETNQQGA, the protein stability index came to 2.53.

On to TLSEAYIQIGKRRDNDETNQQGA, for which the protein stability index came to 3.27.

On to TLSEAYIQISKRRDNDETNQQGA, for which the protein stability index was 3.19.

Regarding TLSEAYIQIAKRRDNDETNQQGA, the protein stability index came out at 3.39.

As to TLSEAYIQIPKRRDNDETNQQGA, the protein stability index came to 3.41.

In the case of TLSEAYIQIQKRRDNDETNQQGA, the protein stability index was 3.46.

TLSEAYIQIKKRRDNDETNQQGA: the protein stability index was 3.23.

For TLSEAYIQICKRRDNDETNQQGA, the protein stability index was 2.45.

As to TLSEAYIQINKRRDNDETNQQGA, the protein stability index came out at 2.85.

Consider TLSEAYIQIIKRRDNDETNQQGA, for which the protein stability index is 2.72.

TLSEAYIQITKRRDNDETNQQGA: the protein stability index is 2.92.

In the case of TLSEAYIQIMKRRDNDETNQQGA, the protein stability index came out at 2.5.

As for TLSEAYIQIFKRRDNDETNQQGA, the protein stability index turned out to be 2.78.

In the case of TLSEAYIQIHKRRDNDETNQQGA, the protein stability index amounted to 2.9.

Take TLSEAYIQIVKRRDNDETNQQGA: the protein stability index is 3.58.

Consider TLSEAYIQIDKRRDNDETNQQGA, for which the protein stability index came out at 3.97.

In the case of TLSDAYIQIWKRRDNDETNQQGA, the protein stability index turned out to be 2.56.

Take TLSWAYIQIWKRRDNDETNQQGA: the protein stability index was determined as 1.73.

As for TLSHAYIQIWKRRDNDETNQQGA, the protein stability index is 2.28.

Regarding TLSAAYIQIWKRRDNDETNQQGA, the protein stability index is 2.46.

Regarding TLSVAYIQIWKRRDNDETNQQGA, the protein stability index amounted to 2.12.

TLSQAYIQIWKRRDNDETNQQGA: the protein stability index amounted to 2.32.

With TLSMAYIQIWKRRDNDETNQQGA, the protein stability index was 2.09.

As to TLSYAYIQIWKRRDNDETNQQGA, the protein stability index is 2.04.

Take TLSSAYIQIWKRRDNDETNQQGA: the protein stability index came to 1.76.

Take TLSPAYIQIWKRRDNDETNQQGA: the protein stability index turned out to be 3.17.

Turning to TLSLAYIQIWKRRDNDETNQQGA, the protein stability index was 2.49.

Take TLSGAYIQIWKRRDNDETNQQGA: the protein stability index is 2.23.

As to TLSNAYIQIWKRRDNDETNQQGA, the protein stability index stood at 2.05.

Regarding TLSTAYIQIWKRRDNDETNQQGA, the protein stability index worked out at 2.74.

As for TLSIAYIQIWKRRDNDETNQQGA, the protein stability index worked out at 1.96.

Turning to TLSCAYIQIWKRRDNDETNQQGA, the protein stability index was 1.73.

In the case of TLSRAYIQIWKRRDNDETNQQGA, the protein stability index stood at 2.97.

In the case of TLSKAYIQIWKRRDNDETNQQGA, the protein stability index amounted to 2.4.

Regarding TLSFAYIQIWKRRDNDETNQQGA, the protein stability index was found to be 2.09.

Take CLSEAYIQIWKRRDNDETNQQGA: the protein stability index came out at 2.34.

Turning to YLSEAYIQIWKRRDNDETNQQGA, the protein stability index came out at 1.78.

With DLSEAYIQIWKRRDNDETNQQGA, the protein stability index was 2.35.
